Measured values taken from article PMC9652321, “Structural basis of human SNAPc recognizing proximal sequence element of snRNA promoter”.
Changes are numbered by the printed parent chain.

Assays:
Test in all cases: SPR; EMSA: 100 mM KCl, 25 mM HEPES-K pH 7.6, 12.5 mM MgCl2, 10 uM ZnCl2, 0.1 mM EDTA, 10% glycerol, 3 mM DTT, 0.5 mM PMSF, 50 nM DNA, RT 30 min; SPR: 100 mM KCl, 12.5 mM MgCl2, 10 uM ZnCl2, 0.1 mM EDTA, 0.05% P20, 25 C
Conditions in all cases: protein: recombinant; tags: as P1; copies: 1;1;1;1
mSNAPc#2 SNAP50-R151A = target: T1, mSNAPc#2 SNAP50-R151A (Homo sapiens, UniProt Q5SXM2;Q92966;Q16533;O75971 1-505;1-411;1-268;1-98, R151A)
T1 sequence 1: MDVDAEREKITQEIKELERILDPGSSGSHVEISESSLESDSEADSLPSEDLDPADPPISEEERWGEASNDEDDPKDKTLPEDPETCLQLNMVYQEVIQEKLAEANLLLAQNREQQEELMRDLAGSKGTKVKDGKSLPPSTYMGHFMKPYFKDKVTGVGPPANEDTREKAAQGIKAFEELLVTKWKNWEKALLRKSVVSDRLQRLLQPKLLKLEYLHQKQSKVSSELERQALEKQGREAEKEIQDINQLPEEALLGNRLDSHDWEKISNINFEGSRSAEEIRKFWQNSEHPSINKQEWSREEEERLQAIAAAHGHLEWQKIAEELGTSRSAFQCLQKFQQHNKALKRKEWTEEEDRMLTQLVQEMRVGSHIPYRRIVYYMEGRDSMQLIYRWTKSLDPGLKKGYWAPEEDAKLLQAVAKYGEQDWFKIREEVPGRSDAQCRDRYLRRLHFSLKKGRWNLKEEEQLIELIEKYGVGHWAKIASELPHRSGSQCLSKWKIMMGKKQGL
T1 sequence 2: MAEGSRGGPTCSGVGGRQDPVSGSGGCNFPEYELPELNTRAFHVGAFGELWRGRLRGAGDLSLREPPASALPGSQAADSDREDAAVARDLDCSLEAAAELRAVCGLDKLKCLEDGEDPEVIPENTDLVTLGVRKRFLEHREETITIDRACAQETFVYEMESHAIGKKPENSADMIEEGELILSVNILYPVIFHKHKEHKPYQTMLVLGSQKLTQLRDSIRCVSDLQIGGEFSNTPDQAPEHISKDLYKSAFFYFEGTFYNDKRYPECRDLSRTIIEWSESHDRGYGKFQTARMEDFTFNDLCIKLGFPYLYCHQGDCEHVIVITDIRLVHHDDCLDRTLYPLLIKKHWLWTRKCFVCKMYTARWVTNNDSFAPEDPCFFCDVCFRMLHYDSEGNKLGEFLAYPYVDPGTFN
T1 sequence 3: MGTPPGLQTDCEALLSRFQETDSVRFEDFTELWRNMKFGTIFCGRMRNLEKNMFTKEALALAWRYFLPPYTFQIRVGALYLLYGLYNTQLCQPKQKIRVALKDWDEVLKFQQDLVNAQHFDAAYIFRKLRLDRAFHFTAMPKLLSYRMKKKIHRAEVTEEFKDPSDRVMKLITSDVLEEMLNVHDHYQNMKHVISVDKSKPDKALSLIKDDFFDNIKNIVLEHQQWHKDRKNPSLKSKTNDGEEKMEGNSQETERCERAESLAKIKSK
T1 sequence 4: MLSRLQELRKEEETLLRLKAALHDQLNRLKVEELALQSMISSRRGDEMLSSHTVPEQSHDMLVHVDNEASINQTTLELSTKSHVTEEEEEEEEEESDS

mSNAPc#2 2Mu = target: T2, mSNAPc#2 2Mu (Homo sapiens, UniProt Q5SXM2;Q92966;Q16533;O75971 1-505;1-411;1-268;1-98, Y389A;R151A)
T2 sequence 1: T1 sequence 1 with Y389A
T2 sequence 2: T1 sequence 2
T2 sequence 3: T1 sequence 3
T2 sequence 4: T1 sequence 4

mSNAPc#2 SNAP50-W350A = target: T3, mSNAPc#2 SNAP50-W350A (Homo sapiens, UniProt Q5SXM2;Q92966;Q16533;O75971 1-505;1-411;1-268;1-98, W350A)
T3 sequence 1: T1 sequence 1
T3 sequence 2: T1 sequence 2 with A151R, W350A
T3 sequence 3: T1 sequence 3
T3 sequence 4: T1 sequence 4

B1: 25 bp hU6-1 PSE (SPR) (dsDNA)
DNA 1: TGCTTACCGTAACTTGAAAGTATTT
DNA 2: AAATACTTTCAAGTTACGGTAAGCA
Work on B1 yielded a Kd (mSNAPc#2 SNAP50-R151A) of 1150 nM, a Kd (mSNAPc#2 2Mu) of 1620 nM and a Kd (mSNAPc#2 SNAP50-W350A) of 887 nM.
